According to patent US8613931B2, “Compounds for treating beta-amyloidoses” (Affiris AG, priority 2008, dated 2013):

B1: p4393 (peptide)
peptide: EEFKYSC
B2: p4800 (peptide)
peptide: CSEFKH
B3: p4740 (peptide)
peptide: ADHDFRHC
B4: p4707 (peptide)
peptide: SPNQFRHC
B5: p4386 (peptide)
peptide: LMFRHNC
B6: p4741 (peptide)
peptide: DGLLFKHC
B7: p4381 (peptide)
peptide: SEFKHGC
B8: p4392 (peptide)
peptide: NWFPHPC
B9: p4388 (peptide)
peptide: LPFRHGC
B10: p4801 (peptide)
peptide: SEFKHC
B11: p4385 (peptide)
peptide: SQFRHYC
B12: p4383 (peptide)
peptide: TSVFRHC
B13: p4380 (peptide)
peptide: QDFRHYC
B14: p4725 (peptide)
peptide: THTDFRHC
B15: p4384 (peptide)
peptide: TPFRHTC
B16: p4387 (peptide)
peptide: SAFRHHC
B17: p4802 (peptide)
peptide: CHEFRH
B18: p4382 (peptide)
peptide: TSFRHGC
B19: p4715 (peptide)
peptide: TLHEFRHC
B20: p4389 (peptide)
peptide: SHFRHGC
B21: p4391 (peptide)
peptide: QFKHDLC
B22: p4730 (peptide)
peptide: DEHPFRHC
B23: p4753 (peptide)
peptide: TEFRHKAC
B24: p4803 (peptide)
peptide: HEFRHC
B25: p4746 (peptide)
peptide: EELRHSVC
B26: p4390 (peptide)
peptide: ILFRHGC
B27: p4738 (peptide)
peptide: QSEFKHWC

What was measured:
[1] = system: monoclonal antibody MV-001; assay: In vitro binding assay (ELISA), parental antibody MV-001; parameters: species or system C57/Bl6 mice; details: peptide-BSA on ELISA plate; OD halfmax, dilution factor 1:X of parental AB MV-001
Experimental: 1. In vitro binding assay (ELISA)
Peptides derived from Phage Display as well as variants thereof were coupled to BSA and bound to ELISA plates (1 μM; as indicated in the respective figures) and subsequently incubated with the monoclonal antibody that was used for the screening procedure to analyse binding capacity of identified peptides.

[2] = system: monoclonal antibody MV-001; assay: In vitro inhibition assay (ELISA), MV-001 binding to original epitope; parameters: species or system C57/Bl6 mice; details: OD at 10 μg peptide compared to original peptide
Experimental: 2. In vitro inhibition assay (ELISA)
Different amounts of peptides (concentrations ranging from 10 μg to 0.08 μg; serial dilutions), derived from Phage Display were incubated with the monoclonal antibody that was used for the screening procedure. Peptides diminishing subsequent binding of the antibody to the original epitope coated on ELISA plates were considered as inhibiting in this assay.

[3] = system: full length and/or truncated and modified forms of Aβ; assay: In vivo characterisation of mimotopes: detection of Aβ/truncated/modified forms; parameters: species or system C57/bl6 mice; key: +: All peptides listed in Table 4 mount specific immune reactions against full length and/or truncated and modified forms of Aβ or fragments thereof; details: MV-001 derived mimotopes; mimotope vaccination
Experimental: Inhibiting as well as non-inhibiting peptides were coupled to KLH and injected into mice (wildtype C57/Bl6 mice; subcutaneous injection into the flank) together with an appropriate adjuvant (aluminium hydroxide). Animals were vaccinated 3-6 times in biweekly intervals and sera were taken biweekly as well. Titers to injected peptides, as well as to an irrelevant peptide were determined with every serum. Furthermore, titers against the recombinant human Aβ protein, and against original peptides were determined respectively. In general sera were analysed by reaction against peptides coupled to Bovine Serum Albumin (BSA) and recombinant full length proteins which were immobilised on ELISA plates. Titers were determined using anti mouse IgG specific antibodies. For detailed results see FIGS. 6, 7 and 8 respectively.
Female C57/bl6 mice, 5-6 mice per group, were subcutaneously immunized with 30 μg peptide coupled to KLH. Control groups were administered original epitope-KLH conjugates respectively. As adjuvant alum was used (always 1 mg per mouse). […] The in vitro ELISA assay to determine the antibody titer was performed with sera of single mice after each vaccination in a two week interval (see FIGS. 6 and 7 respectively). The wells of the ELISA plate were coated with mimotope-BSA conjugate and an irrelevant peptide-BSA conjugate (negative control). The positive control was performed by reaction of the parental antibody with the respective mimotope-BSA conjugate. The detection was performed with anti-mouse IgG. Additionally, recombinant proteins were immobilised on ELISA plates and sera reacted accordingly. FIGS. 6 to 8 show representative examples for assays used to characterise mimotopes in vivo.

[4] = target: monoclonal antibody MV-001; assay: ELISA, peptide-BSA coated, MV-001; details: for Binding Capacity: scale: code
[5] = target: monoclonal antibody MV-001; assay: inhibition ELISA; competitor: coated original epitope p4371; details: for Inhibition Capacity: scale: code

Molecule | Inhibition Capacity [2] | Binding Capacity [4] | Inhibition Capacity (code (weaker than original epitope)) [5] | also measured
EELRHSVC [p4746] | 1 (Weaker than original epitope (OD of 10 μg peptide below 3 times of original peptide)) | – | – | Binding Capacity [1]: 3 (strong binding :>20000)
CSEFKH [p4800] | 2 (strong inhibition (as original epitope; OD of 10 μg peptide below 2 times of original peptide)) | – | – | Binding Capacity [1]: 3 (strong binding :>20000)
TEFRHKAC [p4753] | 2 (strong inhibition (as original epitope; OD of 10 μg peptide below 2 times of original peptide)) | – | – | Binding Capacity [1]: 3 (strong binding :>20000); Detection of Aβ/truncated/modified forms [3]: +
TPFRHTC [p4384] | 1 (Weaker than original epitope (OD of 10 μg peptide below 3 times of original peptide)) | – | – | –
LPFRHGC [p4388] | 1 (Weaker than original epitope (OD of 10 μg peptide below 3 times of original peptide)) | – | – | –
YEFRHAQC [p4748] | – | – | – | Binding Capacity [1]: 3 (strong binding :>20000); Detection of Aβ/truncated/modified forms [3]: +
EEFKYSC [p4393] | 1 (Weaker than original epitope (OD of 10 μg peptide below 3 times of original peptide)) | – | – | –
DEHPFRHC [p4730] | 1 (Weaker than original epitope (OD of 10 μg peptide below 3 times of original peptide)) | – | – | Binding Capacity [1]: 3 (strong binding :>20000); Detection of Aβ/truncated/modified forms [3]: +
SQFRHYC [p4385] | 1 (Weaker than original epitope (OD of 10 μg peptide below 3 times of original peptide)) | – | – | Detection of Aβ/truncated/modified forms [3]: +
ADHDFRHC [p4740] | 1 (Weaker than original epitope (OD of 10 μg peptide below 3 times of original peptide)) | – | – | Binding Capacity [1]: 3 (strong binding :>20000); Detection of Aβ/truncated/modified forms [3]: +
TSFRHGC [p4382] | 1 (Weaker than original epitope (OD of 10 μg peptide below 3 times of original peptide)) | – | – | –
SAFRHHC [p4387] | 1 (Weaker than original epitope (OD of 10 μg peptide below 3 times of original peptide)) | – | – | –
DGLLFKHC [p4741] | 1 (Weaker than original epitope (OD of 10 μg peptide below 3 times of original peptide)) | – | – | Binding Capacity [1]: 3 (strong binding :>20000)
QFKHDLC [p4391] | 1 (Weaker than original epitope (OD of 10 μg peptide below 3 times of original peptide)) | – | – | –
CHEFRH [p4802] | 2 (strong inhibition (as original epitope; OD of 10 μg peptide below 2 times of original peptide)) | – | – | Binding Capacity [1]: 3 (strong binding :>20000)
SEFKHC [p4801] | 1 (Weaker than original epitope (OD of 10 μg peptide below 3 times of original peptide)) | – | – | Binding Capacity [1]: 3 (strong binding :>20000)
ELFKHHLC [p4714] | – | – | – | Binding Capacity [1]: 3 (strong binding :>20000); Detection of Aβ/truncated/modified forms [3]: +
HEFRHC [p4803] | 2 (strong inhibition (as original epitope; OD of 10 μg peptide below 2 times of original peptide)) | – | – | Binding Capacity [1]: 3 (strong binding :>20000)
NWFPHPC [p4392] | 1 (Weaker than original epitope (OD of 10 μg peptide below 3 times of original peptide)) | – | – | Binding Capacity [1]: 1 (weak binding :<4000)
SHFRHGC [p4389] | 1 (Weaker than original epitope (OD of 10 μg peptide below 3 times of original peptide)) | – | – | –
QDFRHYC [p4380] | 1 (Weaker than original epitope (OD of 10 μg peptide below 3 times of original peptide)) | – | – | –
TSTEMWHC [p4754] | – | – | – | Binding Capacity [1]: 1 (weak binding :<4000)
B1 | – | 2 | 1 | –
B2 | – | 3 | – | Inhibition Capacity [5]: 2
B3 | – | 3 | 1 | –

Molecule | Inhibition Capacity [2] | Binding Capacity [4] | Inhibition Capacity (code (weaker than original epitope)) [5] | also measured
B4 | – | 3 | 1 | –
B5 | – | 3 | 1 | –
B6 | – | 3 | 1 | –
B7 | – | 3 | 1 | –
B8 | – | – | 1 | Binding Capacity (code (weak binding, OD halfmax 1:<4000)) [4]: 1
B9 | – | 2 | 1 | –
B10 | – | 3 | 1 | –
B11 | – | 2 | 1 | –
B12 | – | 3 | 1 | –
B13 | – | 2 | 1 | –
B14 | – | 3 | 1 | –
B15 | – | 2 | 1 | –
B16 | – | 2 | 1 | –
B17 | – | 3 | – | Inhibition Capacity [5]: 2
B18 | – | 2 | 1 | –
B19 | – | 3 | – | Inhibition Capacity [5]: 2
B20 | – | 2 | 1 | –
B21 | – | 2 | 1 | –
B22 | – | 3 | 1 | –
B23 | – | 3 | – | Inhibition Capacity [5]: 2
B24 | – | 3 | – | Inhibition Capacity [5]: 2
B25 | – | 3 | 1 | –
B26 | – | 3 | 1 | –
B27 | – | 3 | 1 | –
